Experimental findings from patent US20190002549A1 (I MAB BIOPHARMA, published 2019) are described below.

B1: Hu23F4-13 (antibody, V domains shown)
VH: EVQLVQSGAEVKKPGATVKISCKVSGYTFTSHYLHWVQQAPGKGLEWIGWIFPGDDKTKYNEKFKGRATLTSDTSTDTAYMELSSLRSEDTAVYYCARGTKYLNWNFDVWGQGTTVTVSS
VL: DIQLTQSPSFLSASVGDRVTITCKANQNVGTTLAWYQQKPGKAPKLLIYSASYRYSGVPSRFSGSGSGTEFTLTISSLQPEDFATYYCHQYTTYPLTFGGGTKVEIK
notes: Humanized
B2: Hu23F4-36 (antibody, V domains shown)
VH: EVQLVQSGAEVKKPGASVKVSCKASDYTLTSHYLHWVRQAPGQGLEWIGWIFPGDDKTKYNEKFKGRATLTSDTSISTAYMELSRLRSDDTAVYYCARGTKYLNWNFDVWGQGTTVTVSS
VL: B1 VL
notes: Humanized
B3: Hu23F4-27 (antibody, V domains shown)
VH: B2 VH with D26G, L29F, I48M, A68V, L70M
VL: B1 VL with A43S, L46A, S60D, E70D, Y87F
notes: Humanized
B4: Hu50C5-17 (antibody, V domains shown)
VH: EVQLVQSGAEVKKPGSSVKVSCKASGYIFSPYSIHWVRQAPGQGLEWIGYINPSTGYIEYNQHFKDRTTLTADKSTSTAYMELRSLRSEDTAVYYCARGGDYEGYFDYWGQGTTVTVSS
VL: DIQMTQSPSSLSASVGDRVTITCRLNENIYSFLAWYQQKPGKAPKLLVYNAETLAEGVPSRFSGSGSGTDFTLTISSLQPEDFATYYCQQHYGTPYTFGGGTKVEIK
notes: Humanized; also called 35230Hu50C5-17
B5: Hu50C5-23 (antibody, V domains shown)
VH: B4 VH with S30T
VL: B4 VL with G57D
notes: Humanized; also called 35230Hu50C5-23
B6: 23F4 chimera (antibody, V domains shown)
VH: QVQLQQSGPELVKPGTSMKISCKTSDYTLTSHYLHWVKQRPGQGLEWIGWIFPGDDKTKYNEKFKGKATLTSDKTSNTAYMQLSSLTSEESAVYFCARGTKYLNWNFDVWGTGTTVTVSS
VL: DIVLTQPQKFLSTSVGDRVSVTCKANQNVGTTLAWYQQKPGQSPKALIYSASYRYSGVPDRFTGSGSGTDFTLTISNVQSEDLAEYFCHQYTTYPLTFGGGTKLEIK
notes: Human constant regions (captured by anti-human Fc IgG); also called Hu23F4-chimera
B7: Hu23F4-29 (antibody, V domains shown)
VH: B2 VH with D26G, L29F, I48M, A68V
VL: B1 VL with L46A
notes: Humanized
B8: Hu23F4-6 (antibody, V domains shown)
VH: B1 VH with I48M, A68V, L70I
VL: B1 VL with L46A
notes: Humanized
B9: Hu23F4-25 (antibody, V domains shown)
VH: B2 VH with D26G, L29F, I48M, A68V, L70M
VL: B1 VL with L46A
notes: Humanized
B10: Hu23F4-5 (antibody, V domains shown)
VH: B1 VH with I48M, A68V, L70I
VL: B1 VL
notes: Humanized
B11: Hu23F4-20 (antibody, V domains shown)
VH: B2 VH with D26G, L29F, I48M, A68V, L70M, S72R
VL: B1 VL
notes: Humanized
B12: Hu23F4-23 (antibody, V domains shown)
VH: B2 VH with D26G, L29F, I48M, A68V, L70M, S72R
VL: B1 VL with A43S, L46A, S60D, E70D, Y87F
notes: Humanized
B13: 50C5 chimera (antibody, V domains shown)
VH: QVQLQQSAAELVRPGASVKMSCKASGYIFTPYSIHWIKQRPGQGLEWIGYINPSTGYIEYNQHFKDRTTLTADKSSSTAYMQLRSLTSEDSAVYYCARGGDYEGYFDYWGQGTTLTVSS
VL: DIQMTQSPDSLSASVGETVTITCRLNENIYSFLAWYQQRQGKSPQLLVYNAETLAEDVPSRFSGSGSGTQFSLKISSLQTDDFGTYYCQQHYGTPYTFGGGTNLEIE
notes: Human constant regions (captured by anti-human Fc IgG); also called 35230Hu50C5-chimera; Hu50C5-chimera
B14: Hu50C5-6 (antibody, V domains shown)
VH: B4 VH with I48M, T68V, L70I
VL: B4 VL with V48I
notes: Humanized; also called 35230Hu50C5-6
B15: Hu50C5-21 (antibody, V domains shown)
VH: B4 VH with S30T
VL: B4 VL with V48I
notes: Humanized; also called 35230Hu50C5-21
B16: Hu50C5-19 (antibody, V domains shown)
VH: B4 VH
VL: B4 VL with G57D, D70Q
notes: Humanized; also called 35230Hu50C5-19
B17: Hu50C5-8 (antibody, V domains shown)
VH: B4 VH with I48M, T68V, L70I
VL: B4 VL with G57D
notes: Humanized; also called 35230Hu50C5-8
B18: Hu50C5-18 (antibody, V domains shown)
VH: B4 VH
VL: B4 VL with G57D
notes: Humanized
B19: Hu50C5-11 (antibody, V domains shown)
VH: B4 VH with T68V, L70I
VL: B4 VL with V48I
notes: Humanized; also called 35230Hu50C5-11

Where a chain is given by its changes, count along the chain named.

T2 sequence (P04141 18-144 limits assumed): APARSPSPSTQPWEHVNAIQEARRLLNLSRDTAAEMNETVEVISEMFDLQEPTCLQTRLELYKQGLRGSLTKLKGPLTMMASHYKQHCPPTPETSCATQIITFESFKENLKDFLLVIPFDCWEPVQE

The target of one experiment is T1, recombinant rhesus GM-CSF protein (rhesus, UniProt Q9GL44 18-144).
T1 construct: Bought recombinant protein (Genscript)
T1 sequence (Q9GL44 entry or part of it limits assumed): as the sequence (P04141 18-144 limits assumed) above, with S9G, E38K, I43V, T53S, R67Q, E104Q counted along it
Briefly: ELISA, rhesus GM-CSF coated at 1 ug/ml. As to the method: Recombinant rhesus GM-CSF protein (Genscript) was coated at 1 ug/ml in PBS onto microtiter plates for 2 h at room temperature (RT). After coating of antigen, the wells were blocked with PBS/0.05% Tween (PBST) with 1% BSA for 1 h at RT. After washing of the wells with PBST, different concentrations of humanized anti-GM-CSF antibodies were added to the well and incubated for 1 at RT. For detection of the binding antibodies, the HRP-conjugated secondary antibodies against mouse Fc (Jackson Immuno Research) were added, followed by the addition of fluorogenic substrates (Roche). Between all incubation steps, the wells of the plate were washed with PBST three times. Fluorescence was measured in a TECAN Spectrafluor plate reader.
For orientation: In an ELISA, binding on a coated surface is turned into a signal by an enzyme label.
The EC50 is the concentration giving half of the maximal effect. Turning to B1, the concentration giving a half-maximal response (EC50) is 0.00744 µg/mL.
On the same count and under the same terms, the result for B2 reads 0.00775 µg/mL; that for B3, 0.00625 µg/mL; that for B4, 0.0189 µg/mL.
Consider B5, for which the EC50 was determined as 0.0216 µg/mL.

Another experiment addresses T2, recombinant human GM-CSF protein (human, UniProt P04141 18-144). Briefly: cell-based or functional assay.
B6: the “IC50 for TF-1 proliferation” value is 0.00855 µg/mL.
Take B7: the “IC50 for TF-1 proliferation” value came to 0.0274 µg/mL.
Still for that read-out and setting: the result for B1 reads 0.00495 µg/mL.
For the molecule B8, the “IC50 for TF-1 proliferation” value came out at 0.00787 µg/mL.
Consider B2, for which the “IC50 for TF-1 proliferation” value is 0.0033 µg/mL.
As for B9, the “IC50 for TF-1 proliferation” value came out at 0.0122 µg/mL.
In the case of B10, the “IC50 for TF-1 proliferation” value came to 0.0156 µg/mL.
Still for that read-out and setting: next, B3: 0.00395 µg/mL; B11: 0.00877 µg/mL.
Consider B12, for which the “IC50 for TF-1 proliferation” value stood at 0.00908 µg/mL.
On to B13, for which the “IC50 for TF-1 proliferation” value stood at 0.0865 µg/mL.
For the molecule B14, the “IC50 for TF-1 proliferation” value turned out to be 0.0239 µg/mL.
In the case of B15, the “IC50 for TF-1 proliferation” value was 0.0216 µg/mL.
As to B16, the “IC50 for TF-1 proliferation” value came out at 0.017 µg/mL.
Still for that read-out and setting: next, B4: 0.0221 µg/mL; B17: 0.0459 µg/mL; B18: 0.0413 µg/mL.
Still for that read-out and setting: the result for B19 reads 0.111 µg/mL.
Regarding B5, the “IC50 for TF-1 proliferation” value stood at 0.0143 µg/mL.

The next experiment deals with T2, recombinant human GM-CSF protein. Nature of the experiment: SPR Biacore T200, antibody captured by anti-human Fc, GM-CSF as analyte, 25 C, 1:1 model. As for the experimental part: The binding kinetics of humanized antibodies were measured by Biacore as previously described. […] The binding kinetics assay of antibody to antigen was performed using Biacore T200 system through a human antibody capture approach. The anti-human Fc IgG were immobilized on CMS sensor chip according to the manufacturer's instruction. The test antibody was injected and captured by the immobilized anti-human Fc IgG. And then serial concentrations of the antigen were individually injected, and the binding profile was recorded for each concentration of antigen analyte, respectively.
The assay system was regenerated by injection of 10 mM Glycine-HCL pH 1.5 for 30 seconds. The running buffer was HBS-EP+ (10 mM HEPES, pH 7.4, 150 mM NaCl, 3 mM EDTA and 0.05% P20). The assay temperature was 25° C., and the association and dissociation time were 180 and 600 seconds, respectively.
The term Kd denotes a measure of binding affinity in units of concentration. The term koff denotes the rate constant with which the complex falls apart. For orientation: kon means a measure of how fast the partners come together. Turning to B6, the Kd turned out to be 0.0315 nM, the off-rate (koff) is 3.87e-05 s⁻¹ and the on-rate (kon) was 1.23e+06 M⁻¹ s⁻¹.
In the case of B7, the Kd stood at 0.152 nM, the koff came to 0.000101 s⁻¹ and the association rate constant (kon) is 667000 M⁻¹ s⁻¹.
Taken in the same sequence, the figures for B1 were 0.0935 nM, 0.00012 s⁻¹ and 1.28e+06 M⁻¹ s⁻¹.
With B8, the dissociation constant Kd was 0.154 nM, the off-rate constant (koff) amounted to 0.000135 s⁻¹ and the on-rate (kon) turned out to be 876000 M⁻¹ s⁻¹.
Take B2: the dissociation constant (Kd) amounted to 0.0807 nM, the koff stood at 0.000103 s⁻¹ and the kon is 1.27e+06 M⁻¹ s⁻¹.
Take B9: the dissociation constant Kd was determined as 0.172 nM, the off-rate (koff) was found to be 0.000109 s⁻¹ and the association rate constant (kon) came out at 635000 M⁻¹ s⁻¹.
The matching figures for B10: 0.104 nM, 0.000124 s⁻¹ and 1.19e+06 M⁻¹ s⁻¹.
For the molecule B3, the Kd is 0.102 nM, the off-rate constant (koff) was 9.46e-05 s⁻¹ and the kon was 923000 M⁻¹ s⁻¹.
The matching figures for B11: 0.142 nM, 0.000114 s⁻¹ and 801000 M⁻¹ s⁻¹.
Take B12: the dissociation constant Kd stood at 0.13 nM, the koff amounted to 0.000116 s⁻¹ and the association rate constant (kon) came out at 899000 M⁻¹ s⁻¹.
The matching figures for B13: 0.032 nM, 0.000142 s⁻¹ and 4.43e+06 M⁻¹ s⁻¹.
For the molecule B14, the Kd is 0.0311 nM, the dissociation rate constant (koff) turned out to be 0.000138 s⁻¹ and the association rate constant (kon) was found to be 4.42e+06 M⁻¹ s⁻¹.
Taken in the same sequence, the figures for B15 were 0.0236 nM, 0.000108 s⁻¹ and 4.59e+06 M⁻¹ s⁻¹.
Taken in the same sequence, the figures for B16 were 0.023 nM, 0.000106 s⁻¹ and 4.62e+06 M⁻¹ s⁻¹.
The matching figures for B4: 0.0249 nM, 0.000111 s⁻¹ and 4.47e+06 M⁻¹ s⁻¹.
Regarding B17, the Kd was found to be 0.0282 nM, the koff worked out at 0.000139 s⁻¹ and the on-rate constant (kon) is 4.91e+06 M⁻¹ s⁻¹.
Consider B18, for which the dissociation constant (Kd) is 0.0231 nM, the dissociation rate constant (koff) came to 0.000109 s⁻¹ and the kon was determined as 4.72e+06 M⁻¹ s⁻¹.
Taken in the same sequence, the figures for B19 were 0.0312 nM, 0.000136 s⁻¹ and 4.37e+06 M⁻¹ s⁻¹.
Taken in the same sequence, the figures for B5 were 0.0276 nM, 0.000125 s⁻¹ and 4.54e+06 M⁻¹ s⁻¹.
